1 molecule from article PMC9772109 (Immunity, 2022) can be followed below.

The target in this assay is H1 HA (recombinant HA of Figure 4E) (Influenza A virus, H1 subtype; strain …, UniProt A0A1J0CXU0). Kind of assay: BLI.

B1: mAb 789-203-3C12 (IgG) (antibody, V domains shown)
VH: QVQLQESGPGLVKPSEILSLTCAVSGGSFSSYCWGWIRQPPGKGLEWIGSICGSGGSNYLNPSLKSRVTLSVDTSKNQFSLILNSVTAADTAVYYCAREGITIFGVVIPRVLDSWGQGAVVTVSS
VL: DIQMTQSPSSLSASVGDTVTITCRASQSISSWLAWYQQKPGKAPNLLIYRASTLQSGVPSRFSGSGSGTDFTLTISSLQSEDFATYFCQQSTSSPFTFGPGTKLDIK
On to B1, for which the binding result is on record as “binds”.
